Laboratory results published in publication PMC5566547, “Nei-like 1 (NEIL1) excises 5-carboxylcytosine directly and stimulates TDG-mediated 5-formyl and 5-carboxylcytosine excision”.

B1: 41-mer 5caC:G (dsDNA)
DNA 1: GCTACCTACCTAGCAGGGGCCAGCTGTCCCACTGCTCGGAA
DNA 2: TTCCGAGCAGTGGGACAGCTGGCCCCTGCTAGGTAGGTAGC
modifications: 5-carboxylcytosine at position 20 of top strand
B2: 41-mer 5OHC:G (dsDNA)
DNA 1: B1 DNA 1
DNA 2: B1 DNA 2
modifications: 5-hydroxycytosine at position 20 of top strand

Biological target: NEIL1 P2T (human, UniProt Q96FI4 1-390, P2T)
Sequence (Q96FI4 whole entry P2T): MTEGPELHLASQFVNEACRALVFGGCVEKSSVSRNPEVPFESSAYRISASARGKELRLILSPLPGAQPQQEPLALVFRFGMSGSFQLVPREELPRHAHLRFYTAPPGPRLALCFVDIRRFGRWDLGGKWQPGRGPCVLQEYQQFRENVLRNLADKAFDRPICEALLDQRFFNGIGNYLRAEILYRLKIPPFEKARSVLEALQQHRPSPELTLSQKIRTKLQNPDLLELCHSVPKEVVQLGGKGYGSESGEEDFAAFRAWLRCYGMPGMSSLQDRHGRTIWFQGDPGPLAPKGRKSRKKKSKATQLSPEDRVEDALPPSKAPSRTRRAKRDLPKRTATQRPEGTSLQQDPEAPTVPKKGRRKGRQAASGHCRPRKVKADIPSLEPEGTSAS
Test: EMSA; EMSA: 25 mM Tris-HCl pH 7.5, 100 mM NaCl, 1 mM DTT, 10 nM DNA, 1-200 nM NEIL1 P2T, on ice 30 min; 6% native PAGE, 0.5x TBE, 4 C
Settings: protein: recombinant; tags: C-terminal His6; label: 5'-32P top strand; blunt

Binder | binding result
B1 | binds
B2 | binds
